Data on 14 molecules can be found in patent publication US20210188980A1 (SHANGHAI EPIMAB BIOTHERAPEUTICS, published 2021).

Where a chain is given by its changes, count along the chain named.

The chains are these.
B1: HumAb713-8 (antibody, human IgG1, kappa, L234A L235A, V domains shown)
VH: EVQLVESGGGLVQPGGSLRLSCAASGFTSSDYGMHWVRQAPGKGLEWVAYISSGSYTIYYADTVKGRFTISRDNAKNSLYLQMNSLRDEDTAVYYCAKRGGSSHVNVMDYWGQGTTVTVSS
VL: DIQMTQSPSSLSASVGDRVTITCKASDHINNWLAWYQQKPGKAPKLLIYGATSLETGVPSRFSGSGSGTDYTFTISSLQPEDIATYYCQQYWSPPYTFGGGTKVEIKR
notes: humanized mAb713; also called HurnAb713-8
B2: HumAb713-12 (antibody, human IgG1, kappa, L234A L235A, V domains shown)
VH: B1 VH
VL: B1 VL with Y49S
notes: humanized mAb713
B3: HumAb713-15 (antibody, human IgG1, kappa, L234A L235A, V domains shown)
VH: B1 VH with A49S
VL: B1 VL with Y49S, T69K
notes: humanized mAb713
B4: HumAb713-16 (antibody, human IgG1, kappa, L234A L235A, V domains shown)
VH: B1 VH
VL: B1 VL with Y49S, T69K
notes: humanized mAb713
B5: HumAb713-10 (antibody, human IgG1, kappa, L234A L235A, V domains shown)
VH: B1 VH with S29F, A49S
VL: B1 VL with Y49S
notes: humanized mAb713
B6: HumAb713-14 (antibody, human IgG1, kappa, L234A L235A, V domains shown)
VH: B1 VH with S29F, A49S
VL: B1 VL with Y49S, T69K
notes: humanized mAb713
B7: HumAb713-13 (antibody, human IgG1, kappa, L234A L235A, V domains shown)
VH: B1 VH with S29F, A49S, K98R
VL: B1 VL with Y49S, T69K
notes: humanized mAb713
B8: HumAb713-9 (antibody, human IgG1, kappa, L234A L235A, V domains shown)
VH: B1 VH with S29F, A49S, K98R
VL: B1 VL with Y49S
notes: humanized mAb713
B9: HumAb709-3 (antibody, human IgG1, kappa, L234A L235A, V domains shown)
VH: EVQLVESGGGLVQPGGSLRLSCAASGFTFSFYTMSWVRQAPGKRLEWVATISGGGRDTYYPDSVKGRFTISRDNAKNSLYLQMNSLRAEDTAVYYCAGQGGNYLFAYWGQGTLVTVSS
VL: DIQMTQSPSSLSASVGDRVTITCKASQDVNTVVAWYQQKPGKAPKLLIYWASTRHTGVPSRFSGSGSGTDYTLTISSLQPEDFATYYCQQHYTTPYTFGGGTKVEIKR
notes: humanized mAb709
B10: HumAb709-5 (antibody, human IgG1, kappa, L234A L235A, V domains shown)
VH: B9 VH with R44G
VL: B9 VL with Y49S
notes: humanized mAb709
B11: HumAb709-9 (antibody, human IgG1, kappa, L234A L235A, V domains shown)
VH: B9 VH
VL: B9 VL with Q3V, L46V, Y49S
notes: humanized mAb709
B12: HumAb709-6 (antibody, human IgG1, kappa, L234A L235A, V domains shown)
VH: B9 VH
VL: B9 VL with Y49S
notes: humanized mAb709
B13: HumAb709-4 (antibody, human IgG1, kappa, L234A L235A, V domains shown)
VH: B9 VH with R44G, G98R
VL: B9 VL with Y49S
notes: humanized mAb709
B14: HumAb709-11 (antibody, human IgG1, kappa, L234A L235A, V domains shown)
VH: B9 VH with R44G
VL: B9 VL with Q3V, L46V, Y49S, S63T
notes: humanized mAb709

The first assay deals with T1, human PD-1 expressed on cells (human, UniProt Q15116 25-288).
T1 construct: whole, on cells; also called CHO-K1/huPD-1; CHO-K1-hPD-1 cells
T1 sequence (Q15116 25-288): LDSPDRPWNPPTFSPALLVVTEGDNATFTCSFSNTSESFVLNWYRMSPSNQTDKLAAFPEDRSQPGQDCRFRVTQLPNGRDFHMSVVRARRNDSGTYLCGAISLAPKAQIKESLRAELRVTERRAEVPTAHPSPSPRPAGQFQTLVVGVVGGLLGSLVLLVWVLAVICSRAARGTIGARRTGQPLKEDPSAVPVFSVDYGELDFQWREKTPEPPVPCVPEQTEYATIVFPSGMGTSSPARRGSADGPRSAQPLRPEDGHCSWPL
Briefly: cell RBA FACS; competitor PD-L1/Fc.
As for B1, the IC50 (usually the concentration that inhibits the measured activity by half) worked out at 1.05 nM.
In the case of B2, the IC50 was 0.94 nM.
Still for that read-out and setting: for B3 the value was 0.88 nM; for B4, 0.65 nM.
B5 showed a half-inhibitory concentration (IC50) of 0.8 nM.
The same measure, in the same setting: for B6 the value was 0.91 nM; for B7, 0.7 nM.
On the same count and under the same terms, for B8 the value was 1.2 nM.

The target of another assay is T1, human PD-1 expressed on cells. Briefly: cell RBA FACS; competitor PD-L2/Fc.
For the molecule B1, the IC50 is 1.91 nM.
Still for that read-out and setting: then B2, with 1.59 nM.
Same read-out and setting: for B3 the value was 1.65 nM; for B4, 1.63 nM.
Same read-out and setting: for B5 the value was 1.23 nM; for B6, 1.45 nM.
In turn, B7 came in with a half-inhibitory concentration (IC50) of 2.13 nM.
Still for that read-out and setting: for B8 the value was 2 nM.

For another assay the target is unchanged. Briefly: cell RBA FACS, CHO-K1-huPD1; competitor biotin-PD-L1/Fc. The method, then: (§1) All 15 humanized antibodies and the chimeric antibody (mAb709c) were characterized by binding ELISA and cell-based RBA. For cell-based RBA, 2×10⁵ cells/well of CHO-K1-huPD1 cells were added to a pre-blocked 96-well round-bottomed plate and after washing, 50 μl antibodies with diluted concentration ranging from 0.064 nM to 200 nM were added to each well. Next, 50 μl of 60 μg/ml biotinylated PD-L1/Fc or biotinylated PD-L2/Fc protein were added. After gentle mixing and incubation at 4° C., the cells were washed and stained by Alexa Fluor™ 488 streptavidin solution (1:1000, ThermoFisher Scientific; Cat. No. S32354). Signals were readout by FACS and curves were fitted by GraphPad software. […] The association and dissociation rate constants, k (M⁻¹ s⁻¹) and koff(s⁻¹), respectively, were determined by making kinetic binding measurements at five different concentrations of human PD-1-His protein at a continuous flow rate of 30 μl/min. The equilibrium dissociation constant KD (M) of the reaction between antibodies and related target proteins was calculated from the kinetic rate constants using the formula KD=koff/kₒₙ. HumAb709-8 had minimal back-mutation(s) while maintaining to the greatest extent the affinity of the parental variable domains on chimeric mAb709c.
As to B9, the IC50 stood at 1.25 nM.
On the same count and under the same terms, then B10, with 0.67 nM; and B11, with 1.04 nM; and B12, with 1.23 nM.
Same read-out and setting: then B13, with 0.78 nM; and B14, with 0.55 nM.

For the next assay the target is unchanged. Briefly: cell RBA FACS, CHO-K1-huPD1; competitor biotin-PD-L2/Fc. The method, then:
as §1
Turning to B9, the IC50 stood at 1.64 nM.
On the same count and under the same terms, then B10, with 0.97 nM; and B11, with 1.76 nM; and B12, with 1.26 nM.
Molecule B13 returned a half-inhibitory concentration (IC50) of 1.68 nM.
B14: the concentration for half-maximal inhibition (IC50) worked out at 0.92 nM.
